Read-outs that look alike come from different tables or passages of the source. Each block holds one binder with its values, some of them ahead of it.
Columns and labels:
[1] = molecular target: T1, 4H717-AA; assay: two-hybrid library CCmax; conditions: mean of both orientations;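 note: natural log of median RNA to DNA barcode read ratio; higher means stronger binding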
T1 chain: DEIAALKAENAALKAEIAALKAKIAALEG

[2] = molecular target: T2, 4H234-AA; assay: two-hybrid library CCmax; conditions: mean of both orientations;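 note: natural log of median RNA to DNA barcode read ratio; higher means stronger binding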
T2 chain: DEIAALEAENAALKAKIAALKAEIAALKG

[3] = molecular target: T3, 4H2354-AA; assay: two-hybrid library CCmax; conditions: mean of both orientations;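 note: natural log of median RNA to DNA barcode read ratio; higher means stronger binding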
T3 chain: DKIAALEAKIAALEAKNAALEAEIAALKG

[4] = molecular target: T4, 4H2190-AA; assay: two-hybrid library CCmax; conditions: mean of both orientations;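 note: natural log of median RNA to DNA barcode read ratio; higher means stronger binding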
T4 chain: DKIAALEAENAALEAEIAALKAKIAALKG

[5] = molecular target: T5, 4H2944-AA; assay: two-hybrid library CCmax; conditions: mean of both orientations;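 note: natural log of median RNA to DNA barcode read ratio; higher means stronger binding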
T5 chain: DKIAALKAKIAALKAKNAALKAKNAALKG

[6] = molecular target: T6, 4H566-AA; assay: two-hybrid library CCmax; conditions: mean of both orientations;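 note: natural log of median RNA to DNA barcode read ratio; higher means stronger binding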
T6 chain: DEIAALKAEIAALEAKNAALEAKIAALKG

[7] = molecular target: T7, 4H780-AA; assay: two-hybrid library CCmax; conditions: mean of both orientations
T7 chain: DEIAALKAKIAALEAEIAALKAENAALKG

[8] = molecular target: T8, 4H2466-AA; assay: two-hybrid library CCmax; conditions: mean of both orientations
T8 chain: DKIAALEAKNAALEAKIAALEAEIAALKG

[9] = molecular target: T9, 4H2617-AA; assay: two-hybrid library CCmax; conditions: mean of both orientations
T9 chain: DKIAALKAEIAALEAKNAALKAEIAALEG

[10] = molecular target: T10, 4H2837-AA; assay: two-hybrid library CCmax; conditions: mean of both orientations
T10 chain: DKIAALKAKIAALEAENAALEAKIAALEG

[11] = molecular target: T11, 4H794-AA; assay: two-hybrid library CCmax; conditions: mean of both orientations
T11 chain: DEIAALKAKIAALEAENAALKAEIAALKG

[12] = molecular target: T12, 4H2949-AA; assay: two-hybrid library CCmax; conditions: mean of both orientations
T12 chain: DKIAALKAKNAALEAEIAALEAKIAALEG

[13] = molecular target: T13, 4H48-AA; assay: two-hybrid library CCmax; conditions: mean of both orientations
T13 chain: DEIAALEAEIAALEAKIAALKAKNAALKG

[14] = molecular target: T14, 4H3655-AA; assay: two-hybrid library CCmax
T14 chain: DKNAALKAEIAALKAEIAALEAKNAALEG

[15] = molecular target: T15, 4H3343-AA; assay: two-hybrid library CCmax; conditions: mean of both orientations
T15 chain: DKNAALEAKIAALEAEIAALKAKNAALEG

[16] = molecular target: T16, 4H454-AA; assay: two-hybrid library CCmax; conditions: mean of both orientations
T16 chain: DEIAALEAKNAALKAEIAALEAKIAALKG

[17] = molecular target: T17, 4H3844-AA; assay: two-hybrid library CCmax; conditions: mean of both orientations
T17 chain: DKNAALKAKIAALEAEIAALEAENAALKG

[18] = molecular target: T18, 4H2078-AA; assay: two-hybrid library CCmax
T18 chain: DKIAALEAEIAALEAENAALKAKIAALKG

[19] = molecular target: T19, 4H993-AA; assay: two-hybrid library CCmax; conditions: mean of both orientations
T19 chain: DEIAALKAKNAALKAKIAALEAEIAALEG

[20] = molecular target: T20, 4H2754-AA; assay: two-hybrid library CCmax; conditions: mean of both orientations
T20 chain: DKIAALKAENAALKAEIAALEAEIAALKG

[21] = molecular target: T21, 4H906-AA; assay: two-hybrid library CCmax; conditions: mean of both orientations
T21 chain: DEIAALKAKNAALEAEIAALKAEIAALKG

[22] = molecular target: T22, 4H429-AA; assay: two-hybrid library CCmax; conditions: mean of both orientations
T22 chain: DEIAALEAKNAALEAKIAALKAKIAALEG

[23] = molecular target: T23, 4H342-AA; assay: two-hybrid library CCmax; conditions: mean of both orientations
T23 chain: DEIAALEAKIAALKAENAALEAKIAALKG

[24] = molecular target: T24, 4H3112-AA; assay: two-hybrid library CCmax; conditions: mean of both orientations
T24 chain: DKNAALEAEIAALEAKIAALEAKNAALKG

[25] = molecular target: T25, 4H2729-AA; assay: two-hybrid library CCmax; conditions: mean of both orientations
T25 chain: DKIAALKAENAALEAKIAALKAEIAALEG

[26] = molecular target: T26, 4H249-AA; assay: two-hybrid library CCmax
T26 chain: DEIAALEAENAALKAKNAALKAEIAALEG

[27] = molecular target: T27, 4H881-AA; assay: two-hybrid library CCmax; conditions: mean of both orientations
T27 chain: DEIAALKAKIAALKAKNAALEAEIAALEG

[28] = molecular target: T28, 4H317-AA; assay: two-hybrid library CCmax; conditions: mean of both orientations
T28 chain: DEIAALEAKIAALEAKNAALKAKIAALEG

[29] = molecular target: T29, 4H2883-AA; assay: two-hybrid library CCmax; conditions: mean of both orientations
T29 chain: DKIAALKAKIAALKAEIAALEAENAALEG

[30] = molecular target: T30, 4H3627-AA; assay: two-hybrid library CCmax; conditions: mean of both orientations
T30 chain: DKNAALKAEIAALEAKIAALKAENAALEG

[31] = molecular target: T31, 4H2151-AA; assay: two-hybrid library CCmax; conditions: mean of both orientations
T31 chain: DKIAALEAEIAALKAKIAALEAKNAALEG

[32] = molecular target: T32, 4H2393-AA; assay: two-hybrid library CCmax; conditions: mean of both orientations
T32 chain: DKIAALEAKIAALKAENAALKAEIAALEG

[33] = molecular target: T33, 4H2165-AA; assay: two-hybrid library CCmax; conditions: mean of both orientations
T33 chain: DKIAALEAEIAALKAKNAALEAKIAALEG

[34] = molecular target: T34, 4H3606-AA; assay: two-hybrid library CCmax; conditions: mean of both orientations
T34 chain: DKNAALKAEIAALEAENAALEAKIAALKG

[35] = molecular target: T35, 4H335-AA; assay: two-hybrid library CCmax; conditions: mean of both orientations
T35 chain: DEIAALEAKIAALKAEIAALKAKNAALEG

[36] = molecular target: T36, 4H2277-AA; assay: two-hybrid library CCmax; conditions: mean of both orientations
T36 chain: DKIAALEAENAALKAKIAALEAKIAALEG

[37] = molecular target: T37, 4H2642-AA; assay: two-hybrid library CCmax
T37 chain: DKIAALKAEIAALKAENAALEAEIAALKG

[38] = molecular target: T38, 4H2505-AA; assay: two-hybrid library CCmax; conditions: mean of both orientations
T38 chain: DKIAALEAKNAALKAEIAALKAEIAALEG

[39] = molecular target: T39, 4H678-AA; assay: two-hybrid library CCmax; conditions: mean of both orientations
T39 chain: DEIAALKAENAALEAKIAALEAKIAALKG

[40] = molecular target: T40, 4H3427-AA; assay: two-hybrid library CCmax; conditions: mean of both orientations
T40 chain: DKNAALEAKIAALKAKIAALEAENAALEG

[41] = molecular target: T41, 4H605-AA; assay: two-hybrid library CCmax; conditions: mean of both orientations
T41 chain: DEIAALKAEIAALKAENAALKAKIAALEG

[42] = molecular target: T42, 4H2575-AA; assay: two-hybrid library CCmax; conditions: mean of both orientations
T42 chain: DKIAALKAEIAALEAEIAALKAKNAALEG

[43] = molecular target: T43, 4H3921-AA; assay: two-hybrid library CCmax; conditions: mean of both orientations
T43 chain: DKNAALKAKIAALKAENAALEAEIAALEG

[44] = molecular target: T44, O7-bA; assay: two-hybrid library CCNG1
T44 chain: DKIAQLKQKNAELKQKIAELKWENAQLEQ

[45] = molecular target: T45, O5-bA; assay: two-hybrid library CCNG1
T45 chain: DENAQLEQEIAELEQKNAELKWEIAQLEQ

[46] = molecular target: T46, O4-bA; assay: two-hybrid library CCNG1
T46 chain: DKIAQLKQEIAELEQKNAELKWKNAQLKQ

[47] = molecular target: T47, O9-bA; assay: two-hybrid library CCNG1
T47 chain: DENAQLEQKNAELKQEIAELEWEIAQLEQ

[48] = molecular target: T48, O6-bA; assay: two-hybrid library CCNG1
T48 chain: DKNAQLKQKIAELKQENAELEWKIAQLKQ

[49] = molecular target: T49, O8-bA; assay: two-hybrid library CCNG1
T49 chain: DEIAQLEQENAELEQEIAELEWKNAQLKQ

[50] = molecular target: T50, O3-bA; assay: two-hybrid library CCNG1
T50 chain: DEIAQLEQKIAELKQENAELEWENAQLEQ

[51] = molecular target: T51, 4H1867-AA; assay: two-hybrid library CCmax
T51 chain: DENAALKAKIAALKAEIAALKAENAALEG

[52] = molecular target: T52, P8bHq; assay: two-hybrid library CCNG1
T52 chain: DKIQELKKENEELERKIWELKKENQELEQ

[53] = molecular target: T53, P9bHq; assay: two-hybrid library CCNG1
T53 chain: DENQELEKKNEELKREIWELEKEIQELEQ

interaction score [1]: -1.62 | interaction score [2]: -0.505 | interaction score [3]: -0.00435 | interaction score [4]: 1.33 | interaction score [5]: 0.298 | interaction score [6]: -1.05 | interaction score [7]: -1.14 | interaction score [8]: -0.982 | interaction score [9]: 2.35 | interaction score [10]: 1.93 | interaction score [11]: 1.84 | interaction score [12]: -1.02 | interaction score [13]: 0.504 | interaction score [14]: -1.22 | interaction score [15]: -1.08 | interaction score [16]: -0.599 | interaction score [17]: -0.801 | interaction score [18]: 1.98 | interaction score [19]: -1.03 | interaction score [20]: 0.637 | interaction score [21]: -0.59 | interaction score [22]: 1.79 | interaction score [23]: 2.14 | interaction score [24]: -0.952 | interaction score [25]: 0.661 | interaction score [26]: 0.347 | interaction score [27]: 2.31 | interaction score [28]: 1.93 | interaction score [29]: 0.158 | interaction score [30]: -0.14 | interaction score [31]: -1.39 | interaction score [32]: 2.47 | interaction score [33]: 0.246 | interaction score [34]: -0.297 | interaction score [35]: 0.35 | interaction score [36]: -1.09 | interaction score ([37]; mean of both orientations): 2.25 | interaction score [38]: 1.62 | interaction score [39]: -0.466 | interaction score [40]: -0.664 | interaction score [41]: 1.68 | interaction score [42]: -0.721 | interaction score [43]: 2.02
B1: 4H2078-AA (peptide)
chain: DKIAALEAEIAALEAENAALKAKIAALKG

interaction score [44]: -0.831 | interaction score [45]: -0.75 | interaction score [46]: 2.34 | interaction score [47]: -0.712 | interaction score [48]: -0.618 | interaction score [49]: -1.12 | interaction score [50]: -0.685
B2: O3-bA (peptide)
chain: DEIAQLEQKIAELKQENAELEWENAQLEQ

interaction score [1]: -1.28 | interaction score [2]: -0.943 | interaction score [3]: -1.35 | interaction score [4]: -0.428 | interaction score [5]: -0.512 | interaction score [6]: -1.59 | interaction score [7]: -0.525 | interaction score [8]: -1.6 | interaction score [9]: -1.4 | interaction score [10]: -1.19 | interaction score [11]: -1.4 | interaction score [12]: -1.06 | interaction score [13]: 1.5 | interaction score ([14]; mean of both orientations): -0.0304 | interaction score [15]: 0.12 | interaction score [16]: -0.172 | interaction score [17]: 1.01 | interaction score ([18]; mean of both orientations): -0.776 | interaction score [19]: -1.05 | interaction score [20]: 1.11 | interaction score [21]: -1.71 | interaction score [22]: -1.51 | interaction score [23]: -0.881 | interaction score [24]: 0.579 | interaction score [25]: -1.46 | interaction score [27]: -1.8 | interaction score [28]: -1.01 | interaction score [29]: -0.898 | interaction score [30]: 0.353 | interaction score [31]: -1.27 | interaction score [32]: -1.58 | interaction score [51]: 0.169 | interaction score [33]: -1.77 | interaction score [34]: -1.11 | interaction score [35]: -0.988 | interaction score [36]: -1.23 | interaction score [37]: -2.13 | interaction score [38]: -1.62 | interaction score [39]: -1.03 | interaction score [40]: -1.26 | interaction score [41]: -1.5 | interaction score [42]: 1.63 | interaction score [43]: -1.88
B3: 4H1867-AA (peptide)
chain: DENAALKAKIAALKAEIAALKAENAALEG

interaction score [52]: -0.229 | interaction score [53]: -1.36
B4: P8bHq (peptide)
chain: DKIQELKKENEELERKIWELKKENQELEQ

— article PMC10397247
